Reference: the RNAGym collection of RNA variant scans (doi:10.1073/pnas.2313332121)

B1: TPR t1 (parent)
chain: GACCAAUCUGCCCUCAGAGCUCGAGAACAUCUUCGGAUGCAGAGGAGGCAGGCUUCGGUGGCGCGAUAGCGCCAACGUCCUCAACCUCCAAUGCAUCCCACCACAUGAUGAUGCCUGAAGAGCCUUGGUUUUUUG

Variants of: B1
Test: polymerase ribozyme fitness, log enrichment relative to wild type (log ratio); higher = more active; in vitro selection for triplet polymerase activity
In short: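 Mutant libraries of each subunit of a heterodimeric triplet polymerase ribozyme were built by PCR and transcribed. Each library went through one round of in vitro selection in triplicate: annealing with biotinylated primer, partner subunit and triplets, frozen incubation at −7 °C, gel excision of extended constructs, streptavidin-bead capture and RT-PCR. Input and output libraries were Illumina-sequenced; only genotypes with ≥10 input reads and ≥1 read per output were kept. Fitness is log2(genotype enrichment/wild-type enrichment), using inverse-variance-weighted replicate averages.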

Row | Variant | polymerase ribozyme fitness (log ratio)
1 | G69C C115U | -1.75
2 | U32C C40U C86G | -2.2
3 | G10C C11U C62G A84U A108G | -4.22
4 | A37U G61C | -1.86
5 | C8G U38A A100U | -2.56
6 | G35U G39A | -5.13
7 | A18U G42A | -2.11
8 | C40G C62A | -1.9
9 | A27C G60A | -3.37
10 | C15U G61A C89A A111U | -6.53
11 | G113C A119C | -4.37
12 | U55A C73A | 0.5
13 | C12G A29U C56U A118C C123G | -0.961
14 | C12A U81A U133A | -1.05
15 | C72A U125G U131A | -0.709
16 | C49G G63C C80U U112A C124U | -5.99
17 | C40G C124U | 0.744
18 | C62A C72G | -2.09
19 | C40A U78C U92A C115U | -4.02
20 | A24G G57A U78C C101A | -4.85
21 | C62A G127A | -2.22
22 | A16G C22U G45U C64G C86G A121C | -7.27
23 | G42A G61C U133A | -5.31
24 | C34G U78G | -6.71

Row | Variant | polymerase ribozyme fitness (log ratio)
25 | G57A G63A | -2.04
26 | C28U C70U C88U | -3.74
27 | G10A C20G A41C G48A G69U A84G | -3.37
28 | G69A G135A | -3.3
29 | A66C A105U A108G C124A | -7.55
30 | G39A A46U U78A U126C | -3.53
31 | C22A C49U C73G | -4.03
32 | C8G A37U C49U U54G U133G | -1.23
33 | C11U C56U | -0.0444
34 | C31A C40G A46G G63A A111U | -6.15
35 | C40G G60U A68G | -4.86
36 | C12G G61A C62G U87A G113U U125G | -7.34
37 | C82A U92A | -3.43
38 | C28A G35C G61A A84C A103G C114A G117C | -7.02
39 | C40G G57U A91C | -3.44
40 | C49A U55C C88G C94U C124U | 0.14
41 | A84U C115A U125G | -0.872
42 | C70A C114A A119U | -4.59
43 | G57A C104U | -0.961
44 | C49A G63U G117A | -3.12
45 | C62U C101G | -1.35
46 | C3U C4A G51C C53A G71U A103G C114U | -5.71
47 | G57U C62U U67C U87G C101G G113C | -6.27
48 | C34U C124A | -2.31

Row | Variant | polymerase ribozyme fitness (log ratio)
49 | U7G C102A | -0.8
50 | G17A G42U U106A | -5.21
51 | C13U C28G C53G U78G C88A U106A G110A A111G | -1.49
52 | U96G G127A | -2.63
53 | C12U C70U C80A C97U A121G U133A | -3.61
54 | C53G G127U | -1.46
55 | C70U A75G | -0.621
56 | A29G C115A | -0.195
57 | A5U C15A | -2.36
58 | A46C U87A C123U U132A | 1.86
59 | A26G C80U G120U | -3.13
60 | U7G A29C C72A C82A G120C | -0.586
61 | G19C G42C C97U C115A A119G U129A | -5.99
62 | G45U C56G G77A C101U U112C | 0.372
63 | A6U C22A A43C C79G C97U | -8.2
64 | G48A C64U C73A | -0.705
65 | C72G C88U U129A | -0.881
66 | C73A C102U G128C | -3.88
67 | A5U C15U A16U U125A | -4.8
68 | A37U C72A | -0.493
69 | G71A C97U | -1.06
70 | G47A C53U A118U | -0.687
71 | G45C G48U G52U C76U | -4.18
72 | A5C G10A C86A | -0.155

Row | Variant | polymerase ribozyme fitness (log ratio)
73 | G69A G110C | -6.02
74 | C49U C53A C104U | -0.231
75 | G69A C70U C124A | -4.91
76 | A16G U81A | -2.36
77 | A18U G117U | -4.36
78 | C20A G93U U112G | -4.35
79 | A2C C4U C13U C114U C124G | -1.63
80 | G39U G113A | -1.25
81 | G42C G77U | -1.59
82 | U54A A66G C70G C124U U129G | -6.53
83 | C49G C70A G110A A121C | -4.74
84 | C49U U106G | -2.35
85 | G42U C73U G117A | -3.05
86 | A18G G60A C88U A90C | -4.63
87 | G77C C114A G127C | -2.76
88 | G39U A50U G60U G61A C79A | -3.64
89 | U32C C73A C85G | -3.02
90 | C53A U133G | -0.187
91 | C11G A84U G122A | 0.157
92 | U7A A24C C40G G93U U112A C123U | -5.82
93 | G44A C56A C89U C97U U116A | -3.63
94 | C40U A41C C76U U112A G122A | -3.19
95 | G71U U81G A111U | -6.76
96 | C72U A91G C104A G127C | -4.76

Row | Variant | polymerase ribozyme fitness (log ratio)
97 | C56U A111U | -1.9
98 | G48U C82U | -1.32
99 | A2C C76U | -2.06
100 | C8U C80G | -4.55
101 | C22A C49U C73G C124G | -4.49
102 | A50U G61U C86U | -1.34
103 | C12U U14A C40A C72U A105C | -4.37
104 | C12G C123G | 1.55
105 | C72G C89U | -0.34
106 | A6G C11U G48C C64U G113A G117A | -7.08
107 | G58C U129G | -0.485
108 | C34A G39U C56G | -3.08
109 | G25U C72U G110U C114U | -6.32
110 | G61U C79A | -0.952
111 | C34A G61U A111G | -2.85
112 | G63C U87A U130C G135U | -1.49
113 | G61C C64G A111C | -6.11
114 | A26U A37C G77A C124G | -1.36
115 | G117C A119U | -2.92
116 | G48A G122C C123G G127A | -2.37
117 | G60U C115A U125G | 0.39
118 | C72G A91G | -1.13
119 | A18U A43C C49U | -3.92
120 | A5C U78C C101U | -1.23

Row | Variant | polymerase ribozyme fitness (log ratio)
121 | U30G A43U A91U G113U | -6.55
122 | A37C G60U C101G | -1.57
123 | C72U C98U U116A | -4.95
124 | C11U C49U G63A U109A G117C A119U | -7.12
125 | G63A G113U G127C | -4.93
126 | C73U C115U | -0.667
127 | C15A G63C C88U | -3.01
128 | A111C C124U G128C U129A | -3.3
129 | C8U G58A G110A | -1.27
130 | C56G A75G U109C | -7.14
131 | A6U C56U | 0.177
132 | G47C C72G | -2.9
133 | C49G C79A | -3.75
134 | C34A A105U A121U | -1.99
135 | C8U C73A C88G | -1.06
136 | G58U C73U | -0.0574
137 | C73U U125A | -0.171
138 | C98U C114A | -3.47
139 | C53G G61U G77U C101G G120C | -3.46
140 | C22G G48C C85G U112G | -3
141 | C79U A95G A105U | -2.87
142 | U109A G110A | -4.3
143 | U9G C56U | -0.823
144 | C8U G58U A111G U126C | -1.57

Row | Variant | polymerase ribozyme fitness (log ratio)
145 | U59A G128C | -2.5
146 | C15U G39A G117C G120A | -3.48
147 | U32G A41G C70U C89G C114U | -5.66
148 | G52U G58C G77A U87C U96G | -1.61
149 | C89U G122U | -0.616
150 | A6G G39A A68G C86U G117A | -5.73
151 | U92A C123G | -0.636
152 | C11U C20G A27G C56U | -5.19
153 | G71C C72A | -6.22
154 | U38C G57U G117C | -5.11
155 | C11A C72U A75G U129A | -3.18
156 | G44C A50G G52U U54C U92C C124A | 0.995
157 | C85G G117C G128U | -7.06
158 | C20A C22G G113A U132A | -4.93
159 | A6U U54A C62U | 0.317
160 | C40U G63U | -1.68
161 | A2U G17A | -5.45
162 | A37C C49A G69U G77C C85A | -3.32
163 | C49G G135U | -1.27
164 | U59G C104A A105U G110A | -5.5
165 | C40U C49G U59A | -1.73
166 | A16C G52C C62U | -3.32
167 | C70U C88G U125G | -1.36
